Source: patent publication US20250282828A1, “PEPTIDES FOR THE TREATMENT OF RESPIRATORY INFECTIONS OF VIRAL ORIGIN” (CENTRO DE INGENIERÍA GENÉTICA Y BIOTECNOLOGÍA, priority 2020, published 2025)
Where two headings read alike, the source gives them in different places. No end group written: not given here.

Experiments:
viral proteins = test: BIACORE surface plasmon resonance interaction, all proteins evaluated; type: binding
SARS-CoV-2 [1] = tested on: SARS-CoV-2
SARS-CoV-2 [2] = conditions: 96 h, 100 μM
[3] = target: T1, non-structural protein 1 of the Dengue virus 2 (NS1-D2) (Dengue virus 2), P29990
T1 chain: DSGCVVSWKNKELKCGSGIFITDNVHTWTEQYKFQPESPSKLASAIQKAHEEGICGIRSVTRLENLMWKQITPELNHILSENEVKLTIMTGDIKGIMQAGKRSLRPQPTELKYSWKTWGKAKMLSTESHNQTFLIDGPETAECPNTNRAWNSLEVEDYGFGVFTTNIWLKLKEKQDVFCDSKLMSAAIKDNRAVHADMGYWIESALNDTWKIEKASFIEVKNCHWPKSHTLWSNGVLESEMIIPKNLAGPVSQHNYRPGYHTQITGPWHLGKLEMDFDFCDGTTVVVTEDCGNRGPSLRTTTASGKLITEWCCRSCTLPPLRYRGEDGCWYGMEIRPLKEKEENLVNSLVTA

[4] = target: T2, Dengue 2 virus capsid protein (Dengue virus 2), P29990
T2 chain: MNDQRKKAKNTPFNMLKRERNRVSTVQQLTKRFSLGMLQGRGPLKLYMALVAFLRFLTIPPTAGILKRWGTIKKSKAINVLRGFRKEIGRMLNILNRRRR

[5] = target: T3, envelope protein of the Zika virus (ZIKV E) (Zika virus), Q32ZE1
T3 chain: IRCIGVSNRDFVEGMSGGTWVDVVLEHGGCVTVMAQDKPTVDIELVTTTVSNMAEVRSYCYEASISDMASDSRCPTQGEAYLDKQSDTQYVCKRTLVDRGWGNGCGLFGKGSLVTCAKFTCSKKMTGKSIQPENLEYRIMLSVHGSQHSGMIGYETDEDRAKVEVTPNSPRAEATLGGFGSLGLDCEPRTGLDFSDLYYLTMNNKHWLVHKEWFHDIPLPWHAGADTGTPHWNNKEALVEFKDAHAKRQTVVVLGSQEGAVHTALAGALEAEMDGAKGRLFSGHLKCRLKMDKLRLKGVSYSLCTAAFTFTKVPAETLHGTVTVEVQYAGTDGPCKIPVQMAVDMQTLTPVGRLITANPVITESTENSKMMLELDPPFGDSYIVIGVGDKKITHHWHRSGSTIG

[6] = target: T4, nucleocapsid protein of the SARS-CoV-2 virus (N protein) (SARS-CoV-2), P0DTC9
[7] = target: T3, envelope protein of the Zika virus …; test: SPR (BIACORE)
[8] = target: T2, Dengue 2 virus capsid protein (Dengue …); test: SPR (BIACORE); Peptide SEQ ID NO: 1
[9] = target: T4, nucleocapsid protein of the SARS-CoV-2 …; test: SPR (BIACORE); Peptide SEQ ID NO: 1
[10] = target: T2, Dengue 2 virus capsid protein (Dengue …); test: SPR (BIACORE); Peptide SEQ ID NO: 2
[11] = target: T4, nucleocapsid protein of the SARS-CoV-2 …; test: SPR (BIACORE); Peptide SEQ ID NO: 2

RVTQMNLNDRLASLADKV [SEQ ID NO: 22]
interaction with the proteins evaluated (viral proteins): did not interact
inhibition of SARS-CoV-2 in primary cultures of human airway epithelium (SARS-CoV-2 [1]): ≤ 20%
Inhibition % (SARS-CoV-2 [2]): 20.2%

RVTQMNLNDRLASLYDKV (modifications not checked) [peptide identified in the Sequence Listing as SEQ ID NO: 1]
Kd [3]: 769 nM
koff [3]: 1.02e-05 s⁻¹
Kd [4]: 1.67 nM
koff [4]: 0.000413 s⁻¹
kon [4]: 247000 M⁻¹ s⁻¹
Kd [5]: 1590 nM
koff [5]: 0.00154 s⁻¹
kon [5]: 965 M⁻¹ s⁻¹
Kd [6]: 3.58 nM
koff [6]: 0.000972 s⁻¹
kon [6]: 271000 M⁻¹ s⁻¹
Kd [7]: 1590 nM
Kd [8]: 1.67 nM
Kd [9]: 3.58 nM

RVTQMNLNDRLASLYDKV (modifications not checked) [Peptide SEQ ID NO: 2]
Kd [7]: 18200 nM
Kd [10]: 754 nM
Kd [11]: 523 nM
